The values that follow come from patent US7524668.

The target of this data set is recombinant soluble human beta-secretase from CHO-K1 cells (Hu_Asp-2LdeltaTM(His)6) (UniProt P56817).
recombinant soluble human beta-secretase from CHO-K1 cells (Hu_Asp-2LdeltaTM(His)6), sequence (P56817 other isoform, or with tags, fused parts or gaps mutant): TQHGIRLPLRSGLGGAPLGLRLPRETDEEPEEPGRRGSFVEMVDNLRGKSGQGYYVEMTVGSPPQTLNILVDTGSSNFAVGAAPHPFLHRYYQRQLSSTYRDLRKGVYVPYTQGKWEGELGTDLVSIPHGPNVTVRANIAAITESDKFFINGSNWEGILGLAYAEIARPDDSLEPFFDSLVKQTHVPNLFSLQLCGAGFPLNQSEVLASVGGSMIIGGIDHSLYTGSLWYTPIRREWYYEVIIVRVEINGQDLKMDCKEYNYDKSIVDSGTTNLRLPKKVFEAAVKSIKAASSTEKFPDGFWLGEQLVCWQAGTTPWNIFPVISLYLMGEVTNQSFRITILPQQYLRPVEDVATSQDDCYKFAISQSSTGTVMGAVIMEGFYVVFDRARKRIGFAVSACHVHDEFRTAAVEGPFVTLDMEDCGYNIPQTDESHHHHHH

Consider HIV-1 protease, for which the “cleavage of the F39-V40 bond (N-terminal sequence after incubation; pH 5.7, 0.5 M urea, 5% HIV protease, 1 hour at 37 C)” value was “nearly 100% cleavage of the F^39-V^40 bond occurred”.
